Here are results for 2 substances from patent US20210285024.

Data set [1] has as its system recombinant alpha tubulin produced in bacteria.
For data set [2], the system named is polymerized microtubules (MT).
The test system of data set [3] is tubulin purified from Spodoptera Frugiperda Sf9 cells (fully tyrosinated; used as purified tubulin or polymerised microtubules).
Data set [4] deals with bacterially produced recombinant human tubulin alpha-1A chain.
Data set [5] deals with 8 amino acid peptide GEEEGEEY (last C-ter alpha-tubulin 1A/1B).
The test system of data set [6] is recombinant engineered tyrosinated telokin containing the C-terminal sequence of alpha tubulin.
Sequence of recombinant engineered tyrosinated telokin containing the C-terminal sequence of alpha tubulin (chain, as listed by the source, change not shown): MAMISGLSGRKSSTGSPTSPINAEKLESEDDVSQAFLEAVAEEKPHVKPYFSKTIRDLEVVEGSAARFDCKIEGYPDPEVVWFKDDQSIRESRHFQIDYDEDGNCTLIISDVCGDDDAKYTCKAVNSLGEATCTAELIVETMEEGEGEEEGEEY

Sequence of recombinant human Vasohibin-2 (VASH2) (chain, as listed by the source): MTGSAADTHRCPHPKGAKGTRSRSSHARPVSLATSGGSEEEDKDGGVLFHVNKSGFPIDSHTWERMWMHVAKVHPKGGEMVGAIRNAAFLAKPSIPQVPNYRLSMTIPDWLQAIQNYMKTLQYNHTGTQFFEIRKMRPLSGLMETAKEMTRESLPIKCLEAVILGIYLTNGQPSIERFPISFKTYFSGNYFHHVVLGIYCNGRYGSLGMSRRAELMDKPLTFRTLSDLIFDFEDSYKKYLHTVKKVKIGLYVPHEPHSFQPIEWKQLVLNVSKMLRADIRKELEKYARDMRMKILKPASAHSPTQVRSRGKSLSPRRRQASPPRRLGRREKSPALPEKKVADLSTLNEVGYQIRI
Sequence of recombinant human Vasohibin-1 (VASH1) (chain, as listed by the source): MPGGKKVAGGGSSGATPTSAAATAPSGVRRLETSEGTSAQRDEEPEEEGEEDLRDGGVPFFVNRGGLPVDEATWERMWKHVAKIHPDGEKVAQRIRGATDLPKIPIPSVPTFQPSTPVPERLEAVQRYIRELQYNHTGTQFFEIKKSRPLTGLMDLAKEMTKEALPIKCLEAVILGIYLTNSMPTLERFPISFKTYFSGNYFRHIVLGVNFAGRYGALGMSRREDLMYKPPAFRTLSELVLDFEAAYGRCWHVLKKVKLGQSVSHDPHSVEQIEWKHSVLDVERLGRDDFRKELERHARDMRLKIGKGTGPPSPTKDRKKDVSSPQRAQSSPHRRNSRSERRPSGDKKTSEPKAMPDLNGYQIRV

With recombinant human Vasohibin-2 (VASH2), the detyrosination entry in data set [1] was “Recombinant human VASH2 produced in bacteria detyrosinates polymerized microtubules (MT), tubulin dimers (TD) and recombinant alpha tubulin”; in the data set with tubulin dimers (TD) it was “Recombinant human VASH2 produced in bacteria detyrosinates polymerized microtubules (MT), tubulin dimers (TD) and recombinant alpha tubulin”; in data set [2] it was “Recombinant human VASH2 produced in bacteria detyrosinates polymerized microtubules (MT), tubulin dimers (TD) and recombinant alpha tubulin”. Also, the “in vitro detyrosination assay (TCPase activity, immunoblot)” value in data set [3] was “VASH2 acted as an autonomous enzyme that did not require the small vasohibin binding protein as a chaperone to enzymatically be active”. Moreover, in data set [4], the “free tyrosine release (tyrosinase colorimetric assay, OD305)” value is “Release of tyrosine by VASH2 could be observed (Sample D-FIG. 16.)”. Moreover, the “detyrosination of the peptide (dot blot)” value in data set [5] was “Recombinant human VASH2 and catalytically dead (VASH2D) produced in bacteria detyrosinates a 8 amino acid peptide consisting of GEEEGEEY”. In data set [6], the detyrosination activity entry is “recombinant VASH2 protein showed detyrosination activity on polymerized microtubule, tubulin dimers, recombinant alpha tubulin, engineered Telokin protein containing C-terminal sequence of alpha tubulin and on synthetic peptides”.

recombinant human Vasohibin-1 (VASH1): the detyrosination entry in data set [1] was “almost inactive on recombinant alpha tubulin produced in bacteria”; in the data set with tubulin dimers (TD), “VASH1 was much less effective on microtubules and tubulin dimers”; in data set [2] it was “VASH1 was much less effective on microtubules and tubulin dimers”.
